Data on two molecules can be found in article PMC9358775 (Nature structural & molecular biology, 2022).

Test [1] concerns the target F-actin (skeletal muscle actin, polymerised) ( (rabbit or chicken skeletal …, UniProt P68135 1-377)). Description: fluorescence polarisation.
Test [2] deals with T1, actin-binding domain 1 of human plastin 2 (human, UniProt P13796 120-375).
T1 sequence (looked up): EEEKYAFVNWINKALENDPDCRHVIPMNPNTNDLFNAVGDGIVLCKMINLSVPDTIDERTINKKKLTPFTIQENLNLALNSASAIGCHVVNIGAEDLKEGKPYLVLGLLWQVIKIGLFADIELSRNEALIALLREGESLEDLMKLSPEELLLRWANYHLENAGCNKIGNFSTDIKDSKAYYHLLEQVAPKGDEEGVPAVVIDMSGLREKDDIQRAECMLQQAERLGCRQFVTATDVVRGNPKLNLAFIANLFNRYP
Description: fluorescence polarisation. In general terms: Polarisation of emitted light reports the rotation of a fluorescent probe.

B1: actin-binding domain 2 of human plastin 2, unlabeled (domain or fragment)
chain: TREERTFRNWMNSLGVNPRVNHLYSDLSDALVIFQLYEKIKVPVDWNRVNKPPYPKLGGNMKKLENCNYAVELGKNQAKFSLVGIGGQDLNEGNRTLTLALIWQLMRRYTLNILEEIGGGQKVNDDIIVNWVNETLREAKKSSSISSFKDPKISTSLPVLDLIDAIQPGSINYDLLKTENLNDDEKLNNAKYAISMARKIGARVYALPEDLVEVNPKMVMTVFACLMGKGMKRV
Broadly, the Kd is a measure of binding affinity in units of concentration. Low readings indicate higher affinity, high ones lower affinity. B1: the Kd in test [1] is around 4 nM.

B2: fluorescein-maleimide-labeled actin-binding domain 2 of human plastin 2 (domain or fragment, UniProt P13796 394-627, looked up)
chain: TREERTFRNWMNSLGVNPRVNHLYSDLSDALVIFQLYEKIKVPVDWNRVNKPPYPKLGGNMKKLENCNYAVELGKNQAKFSLVGIGGQDLNEGNRTLTLALIWQLMRRYTLNILEEIGGGQKVNDDIIVNWVNETLREAKKSSSISSFKDPKISTSLPVLDLIDAIQPGSINYDLLKTENLNDDEKLNNAKYAISMARKIGARVYALPEDLVEVNPKMVMTVFACLMGKGMKRV
modifications: labeled with fluorescein-5-maleimide (FM); labeled residue not stated
Consider B2, for which, in test [2], the dissociation constant Kd came out at 11.4 nM. This lies in the double-digit nanomolar range.
